Legend:
[1] = Confinement of fluorescein in the lectin cavity; settings: 4 days at ambient temperature, free fluorescein eliminated again
Experimental: The confinement experiments are carried out by incubating the wild-type protein (XCL) or the mutants (A38C) with the molecule to be tested. In order to carry out the control experiments with the mutant A38C, an oxidation step is carried out in the presence of GSSG in a phosphate buffer 50 mM, 100 mM NaCl, pH 7.2, OVN. The GSSG is then eliminated on a PD-10 sephadex G-25M column (GE Healthcare) pre-balanced in a phosphate buffer 50 mM, 100 mM NaCl, pH 8.5. The eluate is concentred at 1 ml on Vivaspin 15R 30,000 MWCO (Sartorius stedim). A batch of A38C is reduced to TCEP (under argon) with adding of NaOH for a final pH of 8.5. […] The quantity of fluorescein is measured by using an absorption coefficient of e511 nm=75,000 cm^−1 M^−1. The concentrations of XCL and of A38C after the confinement are calculated with e278 nm=[…]. The percentage of confinement is calculated by forming the ratio of the fluorescein/protein concentrations.
In the case with XCL, the inventors incubated the protein (15 μM) with fluorescein (10 mM) and then separated the protein from the non-confined molecules of fluorescein by two successive gel filtration columns. Beforehand, the inventors verified that if these two columns on the fluorescein solution are carried out at 10 mM, no residual free fluorescein is detected. […]

[2] = Chemical dissociation by size exclusion chromatography at acidic pH; type: physicochemical
Experimental: The size exclusion chromatography experiments were carried out on a GE-Healthcare Superose 12 PC 3.2/30 column. The columns are pre-balanced in the buffer tested, namely phosphate buffer 50 mM, 100 mM NaCl, pH7.2 or pH 4.4 in the absence or in the presence of 0.003% of SDS. The flow rate is 0.5 mL/min. The BSA and the RNase A are used as a size marker.
The inventors studied the behaviour of XCL in denaturing chemical conditions close to those encountered in the lysosomes. The analysis was carried out via exclusion chromatography with an acidic pH (pH 4.4). It appears that the elution peak of XCL in these denaturing conditions is displaced to greater elution volumes showing the appearance of a smaller size. When 0.003% SDS is added, the elution peak is displaced to the elution volume of the RNAse A which has a molecular weight close to the XCL monomer.
The behaviour of the oxidised mutant A38C was also analysed. […] The addition of the disulphide bridge therefore increases the stability of the protein assembly.

[3] = Balanced FRET, exchange of monomers; type: physicochemical; settings: 1 h incubation, pH 8.5
Experimental: Fluorescence energy transfer was used to reveal the exchange of the XCL monomers. The exchange reaction is initiated by mixing the same volume of XCL-RITC (1 μM or only the buffer as a reference) and of XCL-FITC (1 μM) at 25° C. in 50 mM of phosphate buffer, 100 mM NaCl, pH 8.5. After one hour of incubation, the emission spectrum of the sample excited at 490 nm is recorded by spectrofluorimetry (Photon Technology International QM-4). The same experiments were carried out with A38C-RITC and A38C-FITC.
The oligomerization balance of the XCL protein was characterised by the measurement of the appearance of resonance energy transfer of the Förster type (FRET) between two populations of XCL labelled separately either with FITC (Fluorescein IsoThioCyanate) or with RITC (Rhodamine IsoThioCyanate).
In this same figure, is also shown the spectrum obtained by mixing the labelled protein, either by the donor or by the acceptor (dotted line curve). This spectrum was deconvoluted, which gives the spectra shown as a dotted line in FIG. 2A.
For the purposes of comparison, the same experiment was carried out with the variant A38C. This variant is covalently bonded by two additional disulphide bridges. A perfectly superimposable spectrum was obtained after mixing donor and acceptor labelled proteins and incubation of this mixture for 1 h at ambient temperature (dotted lines of FIG. 3B).

B1: XCL: Xerocomus chrysenteron lectin, fungal sporocarp lectin forming a tetramer with central cavity, SEQ ID NO: 1 (protein)
chain: MSYSITLRVYQTNRDRGYFSIVEKTVWHFANGGTWSEANGAHTLTQGGSGTSGVLRFLSTKGERITVAVGVHNYKRWCDVVTGLKPDETALVINPQYYNNGGRDYVREKQLAEYSVTSAIGTKVEVVYTVAEGNNLEANVIFS
modifications: Xerocomus chrysenteron
- confinement rate after incubation [1]: remained unchanged
- oligomeric state by elution volume at pH 4.4 with SDS ([2]; pH 4.4, 0.003% SDS): these dimers are dissociated into monomers
- oligomeric state by elution volume at pH 4.4 ([2]; pH 4.4, no SDS): dissociation of the tetramer into a dimer
- FRET between FITC- and RITC-labelled protein after mixing (monomer redistribution) [3]: monomers have been redistributed

From patent publication US20150182631A1, “SYSTEM FOR […]-BASED ACTIVE INGREDIENTS” (Centre National De La Recherche Scientifique-CNRS, priority 2012, published 2015)
